From patent US20230051701A1 (Bristol-Myers Squibb, published 2023)
Numbering of substitutions follows the chain as printed. In names and notes the source's numbering stands. Several values for one entry are separate records, joined by “and”; a condition that tells them apart may be missing. Equal entries are not always repeated.

T1: full length extracellular domain of human CD73 linked to a His tag (human, UniProt P21589 27-547, glycosylated)
T1 construct: 27-553 is 27-547 plus that tag; also called hCD73-his; CD73-his
T1 sequence: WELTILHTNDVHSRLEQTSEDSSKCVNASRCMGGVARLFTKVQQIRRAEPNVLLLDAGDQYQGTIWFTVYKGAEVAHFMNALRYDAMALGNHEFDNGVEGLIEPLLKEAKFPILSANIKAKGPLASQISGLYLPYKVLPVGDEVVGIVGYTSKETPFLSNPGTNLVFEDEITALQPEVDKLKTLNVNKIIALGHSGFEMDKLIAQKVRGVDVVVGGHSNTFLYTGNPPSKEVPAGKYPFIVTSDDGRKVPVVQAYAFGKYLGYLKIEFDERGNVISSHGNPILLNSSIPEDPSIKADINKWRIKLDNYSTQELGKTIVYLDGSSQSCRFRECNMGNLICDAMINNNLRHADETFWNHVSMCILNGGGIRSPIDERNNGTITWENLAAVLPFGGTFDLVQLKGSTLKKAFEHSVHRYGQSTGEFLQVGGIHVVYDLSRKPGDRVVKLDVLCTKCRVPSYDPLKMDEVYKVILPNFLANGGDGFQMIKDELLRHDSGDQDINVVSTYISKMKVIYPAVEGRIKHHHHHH

T2: human CD73 on cells (Calu6, NCI-H292, SK-MEL-24, human tumor cell lines, human B and T cells) (human, UniProt P21589 27-549)
T2 construct: Endogenous protein; also called endogenous CD73; cellular CD73
T2 sequence: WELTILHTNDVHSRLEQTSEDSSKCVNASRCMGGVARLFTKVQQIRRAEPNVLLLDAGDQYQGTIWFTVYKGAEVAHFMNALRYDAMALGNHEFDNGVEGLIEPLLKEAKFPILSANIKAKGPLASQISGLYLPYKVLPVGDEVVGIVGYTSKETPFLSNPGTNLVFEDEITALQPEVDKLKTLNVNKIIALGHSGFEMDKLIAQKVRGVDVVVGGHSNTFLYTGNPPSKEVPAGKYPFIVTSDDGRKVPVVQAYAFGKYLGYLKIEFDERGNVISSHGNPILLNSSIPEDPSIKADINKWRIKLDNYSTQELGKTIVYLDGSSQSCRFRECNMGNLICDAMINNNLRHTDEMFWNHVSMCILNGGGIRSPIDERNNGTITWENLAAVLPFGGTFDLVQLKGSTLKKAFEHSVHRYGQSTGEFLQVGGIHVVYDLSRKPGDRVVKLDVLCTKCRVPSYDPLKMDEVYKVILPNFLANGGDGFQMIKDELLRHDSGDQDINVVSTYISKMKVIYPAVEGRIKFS

T3: rhCD73 bound to his-tag magnet beads (human, UniProt P21589 27-549, limits assumed)
T3 sequence: T2 sequence

B1: CD73.4-IgG2-C219S (antibody)
heavy: QVQLVESGGGVVQPGRSLRLSCAASGFTFSNYGMHWVRQAPGKGLEWVAVILYDGSNKYYPDSVKGRFTISRDNSKNTLYLQMNSLRAEDTAVYYCARGGSSWYPDSFDIWGQGTMVTVSSASTKGPSVFPLAPCSRSTSESTAALGCLVKDYFPEPVTVSWNSGALTSGVHTFPAVLQSSGLYSLSSVVTVPSSNFGTQTYTCNVDHKPSNTKVDKTVERKSCVECPPCPAPPVAGPSVFLFPPKPKDTLMISRTPEVTCVVVDVSHEDPEVQFNWYVDGVEVHNAKTKPREEQFNSTFRVVSVLTVVHQDWLNGKEYKCKVSNKGLPAPIEKTISKTKGQPREPQVYTLPPSREEMTKNQVSLTCLVKGFYPSDIAVEWESNGQPENNYKTTPPMLDSDGSFFLYSKLTVDKSRWQQGNVFSCSVMHEALHNHYTQKSLSLSPG
light: not shown
notes: also called CD73.4-IgG2CS; CD73.4-IgG2.3
B2: CD73.4-IgG2-C219S-IgG1.1f (antibody)
heavy: B1 heavy with Q274K, F296Y, F300Y, V309L, G327A, A330S, P331S, T339A, M397V
light: not shown
modifications: 94% of the N-terminal glutamine was pyro-Q; 97% of the heavy chains lacked the C-terminal lysine
notes: also called CD73.4-IgG2CS-IgG1.1f

Assays:
[1] = biological target: T1, full length extracellular domain of …; experiment: SEC-MALS, equimolar mix 5.5 uM mAb + 5.5 uM hCD73-his, peak area
Procedure: The oligomeric state of CD73/antibody complexes were examined by size-exclusion chromatography coupled to an in-line multi-angle light scattering detector (SEC-MALS). Isocratic separations were performed on a Shodex PROTEIN KW-803 column connected to an Prominence Shimadzu UFLC in buffer containing 200 mM K2HPO4, 150 mM NaCl, pH 6.8, containing 0.02% Na azide (0.1 μm filtered) running at 0.5 mL/min. Samples were injected onto the column using a SIL-20AC Prominence Shimadzu autosampler, and data were obtained from three online detectors connected in series: a Prominence SPD-20AD diode array UV/vis spectrophotometer followed by a Wyatt miniDAWN™ TREOS Multi-Angle Light Scattering Detector then a Wyatt Optilab T-rEX Refractive Index Detector. Data were collected and analyzed using Astra (Wyatt) and Labsolutions (Shimadzu) software.
CD73.4 antibodies having the heavy chain constant regions set forth in Table 26 were also tested for formation of high molecular weight complexes by SEC-MALS and DLS experiments, as described in Example 11.

[2] = biological target: T2, human CD73 on cells (Calu6, NCI-H292, …); experiment: flow cytometry, human tumor cell lines
Procedure: Titration binding curves were produced with CD73 antibodies on Calu6 (CD73 endogenous expressors; human pulmonary adenocarcinoma cell line), DMS114 (CD73 negative; human small cell lung cancer cell line), CHO-cynoCD73 (cynoCD73-transfected) and CHO-K1 (cynoCD73 negative), cells using Alexa Fluor® 647 Goat Anti-Human IgG (H+L) as a secondary antibody, Invitrogen Cat#A-21445, using the following method: 100000 cells were plated in 100 uL PBS+2% FBS per well and blocked for 20 min. Using a U-bottom 96-deep well plate, volumes of antibody and PBS+2% FBS were combined as dictated by Table 12 below.
An 8-point serial dilution was performed by diluting a sixth of the volume (90 uL) into 450 μL PBS+2% FBS. The cell plate was spun down for 5 minutes at 1500 rpm. 100 uL of diluted antibody was added per well of the plate. 100 uL PBS+2% FBS were added to all other wells. […] The plates were spun down at 1500 rpm for 5 min and washed in 200 uL PBS +2% FBS per well. The plates were washed again, resuspended in 200 uL 2% FBS in PBS per well and the samples were run.

[3] = biological target: T3, rhCD73 bound to his-tag magnet beads; experiment: cell-based or functional assay

Binder	UV % Peak1 <12.9 min (complexes larger than 4:4 hCD73-his:mAb) [1]	EC50 [2]	EC50, recombinant human CD73 enzyme inhibition assay [3]
B1	37%	–	–
B2	–	0.5 nM and 0.3 nM to 0.67 nM (2×)	2.9 to 3.1 nM
